According to paper PMC4254451, “The Crystal Structures of Apo and cAMP-Bound GlxR from Corynebacterium glutamicum Reveal Structural and Dynamic Changes upon cAMP Binding in CRP/FNR Family Transcription Factors”:

Target: T1, GlxR (Cg-GlxR) (Corynebacterium glutamicum, UniProt Q79VI7 1-227)
T1 sequence: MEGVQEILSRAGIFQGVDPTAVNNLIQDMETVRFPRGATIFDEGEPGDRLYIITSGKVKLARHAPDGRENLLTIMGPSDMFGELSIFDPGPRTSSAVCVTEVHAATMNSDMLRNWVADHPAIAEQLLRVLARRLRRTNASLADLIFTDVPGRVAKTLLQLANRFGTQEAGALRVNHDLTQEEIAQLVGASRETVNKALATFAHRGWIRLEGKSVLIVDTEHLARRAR
Test: fluorescence anisotropy; 1.5 mM cAMP; 100 mM KH2PO4 pH 7.8, 200 mM KCl, 1 mM 1-thioglycerol, 0 or 1.5 mM cAMP, 5 nM labelled DNA; temperature not stated
Settings: protein: recombinant; tags: His6 (N-terminal, pET16b); chain copies: 2; label: 5'-FITC on strand 1; blunt

B1: FITC-labelled 26-mer duplex (dsDNA)
DNA 1: ATTAATGTGAGTTAGCTCACTCATTA
DNA 2: TAATGAGTGAGCTAACTCACATTAAT
Question: B1 was tested. Which Kd did it give?
Answer: 87 nM
